The source of these data is patent US20260000781A1 (CIDARA THERAPEUTICS, published 2026).

Assay [1] concerns the target T1, Enzymatically active His-tagged human CD73/NT5E protein (human, UniProt P21589 27-547).
T1 construct: Bought protein; also called human CD73/NT5E protein, His-tag (Acro Biosystems cat CD3-H52H7); not shown: His-tag
T1 sequence (looked up): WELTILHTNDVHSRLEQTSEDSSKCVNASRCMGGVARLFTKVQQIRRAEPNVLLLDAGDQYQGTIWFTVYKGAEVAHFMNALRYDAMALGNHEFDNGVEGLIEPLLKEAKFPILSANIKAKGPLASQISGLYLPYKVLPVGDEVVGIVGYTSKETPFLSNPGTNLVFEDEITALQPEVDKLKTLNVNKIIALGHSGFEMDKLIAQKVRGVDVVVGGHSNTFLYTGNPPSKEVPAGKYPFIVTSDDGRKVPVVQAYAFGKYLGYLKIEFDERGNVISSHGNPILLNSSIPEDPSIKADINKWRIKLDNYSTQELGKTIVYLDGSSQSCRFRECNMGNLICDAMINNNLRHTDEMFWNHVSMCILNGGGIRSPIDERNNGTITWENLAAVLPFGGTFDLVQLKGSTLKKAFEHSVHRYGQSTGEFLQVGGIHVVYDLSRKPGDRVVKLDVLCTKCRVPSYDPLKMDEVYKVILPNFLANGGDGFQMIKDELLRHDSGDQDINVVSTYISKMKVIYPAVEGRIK
Put plainly: SPR (Biacore 8K), His-tagged human CD73 captured by anti-His antibody, mAb as analyte. (SPR reads the build-up and loss of mass on a sensor chip optically.)

Assay [2] deals with T2, mouse CD73 expressed on cells (mouse, UniProt Q61503 29-551).
T2 sequence (looked up): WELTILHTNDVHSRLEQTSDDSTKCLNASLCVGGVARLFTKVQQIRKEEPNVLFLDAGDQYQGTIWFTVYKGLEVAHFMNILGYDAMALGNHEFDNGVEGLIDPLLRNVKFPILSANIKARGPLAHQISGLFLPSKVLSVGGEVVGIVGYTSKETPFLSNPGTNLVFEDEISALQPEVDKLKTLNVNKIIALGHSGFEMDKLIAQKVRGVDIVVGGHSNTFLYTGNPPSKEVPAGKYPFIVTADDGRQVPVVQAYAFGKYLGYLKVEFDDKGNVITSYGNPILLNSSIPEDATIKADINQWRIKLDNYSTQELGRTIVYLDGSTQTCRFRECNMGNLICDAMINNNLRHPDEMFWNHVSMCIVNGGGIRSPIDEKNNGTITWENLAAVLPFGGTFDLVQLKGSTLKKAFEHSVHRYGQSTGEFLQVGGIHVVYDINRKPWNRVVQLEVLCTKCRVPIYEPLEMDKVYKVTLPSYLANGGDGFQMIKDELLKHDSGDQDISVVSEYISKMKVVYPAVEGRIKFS
The assay is described as follows: cell-based or functional assay.

Assay [3] addresses T2, mouse CD73 expressed on cells. The assay is described as follows: cell-based or functional assay. The source holds these as a separate data set.
Assay [4] addresses T3, human CD73 expressed on cells (human, UniProt P21589 27-549).
T3 sequence (looked up): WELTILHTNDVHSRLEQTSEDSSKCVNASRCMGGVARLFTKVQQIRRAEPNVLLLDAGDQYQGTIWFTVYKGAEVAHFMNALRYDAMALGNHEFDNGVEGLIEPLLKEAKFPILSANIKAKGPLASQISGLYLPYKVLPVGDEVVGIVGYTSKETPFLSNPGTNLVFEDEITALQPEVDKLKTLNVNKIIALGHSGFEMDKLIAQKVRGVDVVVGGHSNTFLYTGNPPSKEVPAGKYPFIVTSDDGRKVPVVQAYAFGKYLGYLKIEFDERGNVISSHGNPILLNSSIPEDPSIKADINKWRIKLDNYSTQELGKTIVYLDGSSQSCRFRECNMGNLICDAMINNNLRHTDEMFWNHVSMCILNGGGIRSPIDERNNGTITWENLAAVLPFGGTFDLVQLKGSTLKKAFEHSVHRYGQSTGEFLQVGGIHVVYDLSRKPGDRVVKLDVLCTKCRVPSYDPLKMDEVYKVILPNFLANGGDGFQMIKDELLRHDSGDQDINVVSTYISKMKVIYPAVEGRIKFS
The assay is described as follows: cell-based or functional assay.

Assay [5] addresses T3, human CD73 expressed on cells. Put plainly: cell-based or functional assay. This is another data set of the same source.
The target is the same in assay [6]. The assay is described as follows: cell-based or functional assay. This is another data set of the same source.
Assay [7] has the same target. Put plainly: cell-based or functional assay. This is another data set of the same source.
For assay [8] the target is unchanged. Put plainly: cell-based or functional assay. The source holds these as a separate data set.
The target is the same in assay [9]. The assay is described as follows: cell-based or functional assay. The source holds these as a separate data set.
The target is the same in assay [10]. The assay is described as follows: cell-based or functional assay. This is another data set of the same source.
For assay [11] the target is unchanged. The assay is described as follows: cell-based or functional assay. This is another data set of the same source.
Assay [12] shares this target. Put plainly: cell-based or functional assay. The source holds these as a separate data set.

As usually defined, the Kd is the free concentration of one partner at which half of the binding sites on the other are occupied at equilibrium, for simple one-to-one binding. A higher Kd goes with weaker binding.

B1: Mupadolimab (antibody, V domains shown)
VH: QVQLVQSGAEVEKPGASVKVSCKASGYTFTSYWITWVRQAPGQGLEWMGDIYPGSGNTNYNEKFKTRVTITADKSTSTAYMELSSLRSEDTAVYYCAKEGGLTTEDYALDYWGQGTLVTVSS
VL: EIVLTQSPATLSLSPGERATLSCRASKNVSTSGYSYMHWYQQKPGQAPRLLIYLASNLESGIPPRFSGSGYGTDFTLTINNIESEDAAYYFCQHSRELPFTFGQGTKVEIK
In assay [1], B1 returned an equilibrium dissociation constant (Kd) of 123 nM. In addition, in assay [2], the “CD73 inhibition, mouse 4T1 cells, 3 h IC50 [nM]” value was above 100 nM and the “CD73 inhibition, mouse 4T1 cells, 24 h IC50 [nM]” value was above 100 nM. Further, in [3], the “CD73 inhibition, mouse EMT6 cells, 3 h IC50 [nM]” value is above 100 nM and the “CD73 inhibition, mouse EMT6 cells, 24 h IC50 [nM]” value was above 100 nM.

B2: Oleclumab (antibody, V domains shown)
VH: EVQLLESGGGLVQPGGSLRLSCAASGFTFSSYAYSWVRQAPGKGLEWVSAISGSGGRTYYADSVKGRFTISRDNSKNTLYLQMNSLRAEDTAVYYCARLGYGRVDEWGRGTLVTVSS
VL: QSVLTQPPSASGTPGQRVTISCSGSLSNIGRNPVNWYQQLPGTAPKLLIYLDNLRLSGVPDRFSGSKSGTSASLAISGLQSEDEADYYCATWDDSHPGWTFGGGTKLTVL
On to B2, for which, in [4], the “PBMC activation, CD4+CD25+ EC50 [nM] (median, n = 3)” value is above 1000 nM; the “PBMC activation, CD8+CD25+ EC50 [nM] (median, n = 3)” value was above 1000 nM; the “PBMC activation, CD8+Granzyme B+ EC50 [nM] (median, n = 3)” value is above 1000 nM. Also, binding in [1] was characterised by a dissociation constant (Kd) of 0.527 nM. Besides, in assay [2], the “CD73 inhibition, mouse 4T1 cells, 3 h IC50 [nM]” value is above 100 nM and the “CD73 inhibition, mouse 4T1 cells, 24 h IC50 [nM]” value was above 100 nM. In assay [5], the “PBMC activation, CD8+CD25+ EC50 [nM]” value was above 1000 nM and the “PBMC activation, CD8+granzyme B+ EC50 [nM]” value was above 1000 nM. Besides, the “cell-based CD73 enzyme inhibition IC50 (MDA-MB-231 cells)” value in assay [6] was 0.11 nM. Moreover, in assay [7], the “Cell internalization EC50 (nM), Fab-ZAP saporin assay, MDA-MB-231” value was 0.02 nM. Moreover, the “PBMC activation (CD25+), 30 µM AMP EC50 [nM]” value in [8] is above 1000 nM. For the same molecule, in [9], the “CD73 inhibition, human PBMCs, 3 h median IC50 [nM]” value worked out at 7.26 nM and the “CD73 inhibition, human PBMCs, 24 h median IC50 [nM]” value was 89.4 nM. Also, the “inhibition of adenosine production (AMP conversion by CellTiter-Glo), human PBMCs, EC50 [nM]” value in assay [10] is 288 nM. Further, in assay [11], the “CD73 inhibition, human PBMCs, 3 h IC50 [nM]” value is 0.56 nM and the “CD73 inhibition, human PBMCs, 24 h IC50 [nM]” value is above 100 nM. Further, in assay [3], the “CD73 inhibition, mouse EMT6 cells, 3 h IC50 [nM]” value came out at 5.68 nM and the “CD73 inhibition, mouse EMT6 cells, 24 h IC50 [nM]” value was above 100 nM. Moreover, in assay [12], the “Cell-based CD73 inhibition IC50 (nM), MDA-MB-231 cells” value was found to be 0.67 nM.
